Source: US20220409751A1 (NORTHSTAR MEDICAL TECHNOLOGIES, published 2022)

Tests used:
[1] = molecular target: urokinase plasminogen activator receptor (uPAR) (UniProt Q03405); assay: direct binding assay
[2] = molecular target: T1, soluble uPAR (suPAR) (UniProt Q03405 23-305, limits assumed); assay: SPR (Biacore 2000), antibody captured on protein A/G surface, suPAR as analyte, 25 C, 1:1 Langmuir fit
T1 construct: Analyte in the Biacore capture assay
Protocol: The HE™ variants were diluted to 1 μg/mL and injected over a protein A/G surface. Antibody injections were optimized to produce antibody densities of 100-200 RU.
Six serial 3-fold dilutions of soluble uPAR (suPAR) were prepared in running buffer (PBS), and each dilution was injected in triplicate in random order at 25° C. Buffer injections were evenly distributed throughout the run. The sample injections were double-referenced against the blank flow cells and buffer injections to correct for any bulk shift or non-specific binding. Data were analyzed with BiaEvaluation software from Biacore®. Sensorgrams were fit utilizing a 1:1 Langmuir model.

T1 sequence (Q03405 23-305 limits assumed): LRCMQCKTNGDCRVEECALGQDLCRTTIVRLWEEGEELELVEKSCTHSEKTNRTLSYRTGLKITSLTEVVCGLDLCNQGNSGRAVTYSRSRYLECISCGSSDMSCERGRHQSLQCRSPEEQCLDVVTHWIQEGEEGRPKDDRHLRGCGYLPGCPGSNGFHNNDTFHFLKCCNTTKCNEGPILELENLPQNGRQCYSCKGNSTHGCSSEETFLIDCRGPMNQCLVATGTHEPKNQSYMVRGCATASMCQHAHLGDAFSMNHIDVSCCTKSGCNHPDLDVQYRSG
Sequence of urokinase plasminogen activator receptor (uPAR) (Q03405 23-305 limits assumed): as above

Kd [1] [nM]	Kd [2] [nM]	Molecule
1		mouse monoclonal antibody ATN-658
	0.28	HE ™ ATN-1 (antibody, IgG1, V domains shown, V regions cloned into transient expression vectors with human gamma-1 and kappa constant region modules (IgG1, kappa); made in HEK293E cells) VH: EVQLVQSGPEVVKTGASVKISCKASGYSFTSYYMHWVKQAHGQGLEWIGEINPYNGGASYNQKIKGRATFTVDTSTRTAYMEFSSLRSEDTAVYYCARSIYGHSVLDYWGQGTLVTVSS VL: DVVMTQSPLSLSVTIGEPASISCRSSQSLLDSDGKTYLNWLLQKPGQSPKRLIYLVSKRDSGVPDRFSGSGSGTDFTLKISRVEAEDVGVYYCWQGTHFPLTFGQGTKLEIK
	0.39	HE ™ ATN-4 (renamed MNPR-101) (antibody, human IgG1, kappa, V domains shown, IgG1 kappa; In the Biacore assay the transiently expressed (HEK293E), unconjugated antibody was used; also called mAb MNPR-101; humanized mAb MNPR-101) VH: EVQLVQSGPEVKKTGASVKISCKASGYSFTSYYMHWVRQAHGQGLEWIGEINPYNGGASYNQKIQGRATFTVDTSTSTAYMEFSSLRSEDTAVYYCARSIYGHSVLDYWGQGTLVTVSS VL: DVVMTQSPLSLSVTIGEPASISCRSSQSLLDSDGKTYLNWLLQKPGQSPQRLIYLVSKRDSGVPDRFSGSGSGTDFTLKISRVEAEDVGVYYCWQGTHFPLTFGQGTKLEIKR
	0.28	HE ™ ATN-3 (antibody, IgG1, V domains shown, Human gamma-1 and kappa constant region modules (IgG1, kappa); made in HEK293E cells) VH: EVQLVQSGPEVKKTGASVKISCKASGYSFTSYYMHWVRQAHGQGLEWIGEINPYNGGASYNQKIQGRATFTVDTSTSTAYMEFSSLRSEDTAVYYCARSIYGHSVLDYWGQGTLVTVSS VL: DVVMTQSPLSLSVTIGEPASISCRSSQSLLDSDGKTYLNWLLQKPGQSPKRLIYLVSKRDSGVPDRFSGSGSGTDFTLKISRVEAEDVGVYYCWQGTHFPLTFGQGTKLEIK
	0.38	HE ™ ATN-2 (antibody, IgG1, V domains shown, Human gamma-1 and kappa constant region modules (IgG1, kappa); made in HEK293E cells) VH: EVQLVQSGPEVVKTGASVKISCKASGYSFTSYYMHWVKQAHGQGLEWIGEINPYNGGASYNQKIKGRATFTVDTSTRTAYMEFSSLRSEDTAVYYCARSIYGHSVLDYWGQGTLVTVSS VL: DVVMTQSPLSLSVTIGEPASISCRSSQSLLDSDGKTYLNWLLQKPGQSPQRLIYLVSKRDSGVPDRFSGSGSGTDFTLKISRVEAEDVGVYYCWQGTHFPLTFGQGTKLEIK
